The values that follow come from patent US20150118212A1.

Residue numbers refer to the chain shown, from its start. Names may count otherwise.

B1: SAK 1CNT (protein)
chain: MCSSSFDKGKYKKGDDASYFEPTGPYLMVNVTGVDGKGNELLSPHYVEFPIKPGTTLTKEKIEYYVEWALDATAYKEFRVVELDPSAKIEVTYYDKNKKKEETKSFPITEKGFVVPDLSEHIKNPGFNLITKVVIEKK
B2: SAK (Recombinant) (protein)
chain: SSSFDKGKYKKGDDASYFEPTGPYLMVNVTGVDGKGNELLSPHYVEFPIKPGTTLTKEKIEYYVEWALDATAYKEFRVVELDPSAKIEVTYYDKNKKKEETKSFPITEKGFVVPDLSEHIKNPGFNLITKVVIEKK
B3: SAK S3C (protein)
chain: B2 chain with S3C
B4: SAK 1CCT (protein)
chain: SSSFDKGKYKKGDDASYFEPTGPYLMVNVTGVDGKGNELLSPHYVEFPIKPGTTLTKEKIEYYVEWALDATAYKEFRVVELDPSAKIEVTYYDKNKKKEETKSFPITEKGFVVPDLSEHIKNPGFNLITKVVIEKKAC
B5: SAK 2CCT (protein)
chain: B4 chain with A137C
B6: SAK 2CNT (protein)
chain: MCCSSSFDKGKYKKGDDASYFEPTGPYLMVNVTGVDGKGNELLSPHYVEFPIKPGTTLTKEKIEYYVEWALDATAYKEFRVVELDPSAKIEVTYYDKNKKKEETKSFPITEKGFVVPDLSEHIKNPGFNLITKVVIEKK

For this series, the target named is T1, human plasminogen, P00747.
T1 chain: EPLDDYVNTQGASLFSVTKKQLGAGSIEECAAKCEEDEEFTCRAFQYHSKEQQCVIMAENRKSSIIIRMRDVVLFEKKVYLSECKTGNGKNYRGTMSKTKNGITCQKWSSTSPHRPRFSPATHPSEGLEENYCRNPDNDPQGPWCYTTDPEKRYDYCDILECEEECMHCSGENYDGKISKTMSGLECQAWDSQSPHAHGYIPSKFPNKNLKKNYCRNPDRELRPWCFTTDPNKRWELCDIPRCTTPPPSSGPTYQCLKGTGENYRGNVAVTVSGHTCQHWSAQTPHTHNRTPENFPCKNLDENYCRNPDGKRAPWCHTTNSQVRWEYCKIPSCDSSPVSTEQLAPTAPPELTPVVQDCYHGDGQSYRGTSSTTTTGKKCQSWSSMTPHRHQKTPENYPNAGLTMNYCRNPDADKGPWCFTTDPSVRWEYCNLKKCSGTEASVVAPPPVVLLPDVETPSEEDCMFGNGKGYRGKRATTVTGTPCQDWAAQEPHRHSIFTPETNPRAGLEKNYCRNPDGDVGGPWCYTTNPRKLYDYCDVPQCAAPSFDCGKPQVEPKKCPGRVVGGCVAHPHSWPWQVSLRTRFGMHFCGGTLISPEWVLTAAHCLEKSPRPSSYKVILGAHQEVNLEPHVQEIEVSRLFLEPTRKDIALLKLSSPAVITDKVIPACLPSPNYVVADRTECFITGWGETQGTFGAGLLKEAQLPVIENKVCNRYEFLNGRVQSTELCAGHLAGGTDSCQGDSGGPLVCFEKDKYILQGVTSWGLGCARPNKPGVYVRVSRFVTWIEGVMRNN
Take B1: the “Specific Activity (U/mg)” value worked out at 40 ± 4.3 U/mg.
The same measure for B2: 66 ± 3.5 U/mg.
As to B3, the “Specific Activity (U/mg)” value came to 60 ± 4.1 U/mg.
The same measure for B4: 64 ± 4.5 U/mg; for B5: 65 ± 3.8 U/mg.
Turning to B6, the “Specific Activity (U/mg)” value is 57 ± 3 8 U/mg.
